B1: KL2B359 (scFv-LH-Fc) (Fc fusion)
scFv: EIVLTQSPATLSLSPGERATLSCRASESVEYFGTSLMHWYQQKPGQPPRLLIYAASNVESGIPARFSGSGSGTDFTLTISSVEPEDFAVYFCQQTRKVPYTFGGGTKVEIKGGSEGKSSGSGSESKSTGGSQVQLQESGPGLVKPSQTLSLTCTVSGNSITSDYAWNWIRQFPGKRLEWIGYISYSGSTTYNPSLKSRVTISRDTSKNQFSLKLSSVTAADTAVYYCATGYYYGSGFWGQGTLVTVSS
notes: scFv (VL-linker-VH) fused to an Fc; also called scFv20; KL2B359_LH; not shown: The hinge and Fc of the scFv-LH-Fc
B2: KL2B242 (Fab) (Fab, V domains shown)
VH: QVQLQESGPGLVKPSETLSLTCTVSGGSISSYYWSWLRQPAGSGLEWIGRLYVSGFTNYNPSLKSRVTLSLDPSRNQLSLKLSSVTAADTAVYYCAGDSGNYWGWFDPWGQGTLVTVSS
VL: SYELTQPPSVSVSPGETASITCSGDQLGENYACWYQQKPGQSPVLVIYQDSKRPSGIPERFSGSNSGNTATLTISGTQALDEADYYCQAWDNSIVVFGGGTKLTVL
B3: KL2B413 (scFv-LH-Fc) (Fc fusion)
scFv: EIVLTQSPSFLSASVGDRVTITCRASQGISSYLSWYQQKPGKAPKLLIYATSTLQSGVPSRFSGSGSGTEFTLTISSLQPEDFATYYCQQLNSYPRTFGQGTKVEIKGGSEGKSSGSGSESKSTGGSEVQLVESGGGLVQPGGSLRLSCAASGFTFSSYWMTWVRQAPGKGLEWVANIKQDGSERYYVDSVKGRFTISRDNAKNSLYLQMNSLRAEDTAVYYCARDQNYDILTGHYGMDVWGQGTTVTVSS
notes: scFv (VL-linker-VH) fused to an Fc; also called scFv18; KL2B413_LH; not shown: The hinge and Fc of the scFv-LH-Fc
B4: KL2B53 (Fab) (Fab, V domains shown)
VH: EVQLVESGGGVVQPGRSLRLSCVASGFTFSSYDIHWVRQAPGKGLEWVAIISYDGSKKDYTDSVKGRFTISRDNSKNTLYLQMDSLRVEDSAVYSCARESGWSHYYYYGMDVWGQGTMVTVSS
VL: DIVMTQSPSSLSASVGDRVTITCRASQDISNYLAWYQQKPGKVPKFLIYAASTLHSGVPSRFSGSGSGTDFTLTISSLQPEDVATYYCQKYNSAPYTFGQGTRLEIK
B5: KL2B494 (Fab) (Fab, V domains shown)
VH: QVQLVESGGGLVQPGGSLRLSCAASGFTFSHYAMSWVRQAPGKGLEWVSTIGGSGGSTYYADSVKGRFTISRDNSKNTLYLQMNSLRAEDTAVYYCAKPHIVMVTALLYDGMDVWGQGTMVTVSS
VL: SSELTQPPSVSVAPGQTARITCGGNNIGSKSVHWYQQKPGQAPVLVVYDDSDRPSGIPERFSGSNSGNTATLTISRVEAGDEADYYCQVWDSSSDHVVFGGGTKLTVL
B6: KL2B467 (Fab) (Fab, V domains shown)
VH: QVQLVESGGGVVQPGRSLRLSCAASGFTFSYYGMHWVRQAPGKGLEWVAFISYDGSNKYYADSVKGRFTISRDNSKNTLYLQMNSLRAEDTAVYYCAHLPYSGSYWAFDYWGQGTQVTVSS
VL: QSVLTQPPSVSVAPGQTASITCGGDNIGSKSVHWYQQKPGQAPVLVVYDNSDRPSGIPERFSGSNSGTTATLTISRVEAGDEADYYCQVWDSSSDHPVVFGGGTKVTV
B7: KL2B30 (Fab) (Fab, V domains shown)
VH: QVQLQESGPGLVKPSETLSLTCTVSGGSISSYYWSWIRQPPGKGLEWIGYIYYSGSTNYNPSLKSRVTISVDTSKNQFSLKLSSVTAADTAVYYCAGTTIFGVVTPNFYYGMDVWGQGTTVTVSS
VL: DIQMTQSPSFLSASVGDRVTITCRASQGISSYLAWYQQKPGKAPKFLIYAASTLQSGVPSRFSGSGSGTEFTLTISSLQPEDFATYYCQQLNSYPLTFGGGTKVEIK

What follows are binders tested against T1, Kallikrein related peptidase 2 (hK2), soluble human protein (human, UniProt P20151 19-261) (assay: SPR, antibody captured on anti-Fc chip, soluble hK2 injected, 1:1 Langmuir fit).
T1 construct: the stated signal peptide (residues 1-18) is left out, the pro-peptide (19-24) is kept; also called KLK2; kallikrein-2
T1 sequence (P20151 19-261): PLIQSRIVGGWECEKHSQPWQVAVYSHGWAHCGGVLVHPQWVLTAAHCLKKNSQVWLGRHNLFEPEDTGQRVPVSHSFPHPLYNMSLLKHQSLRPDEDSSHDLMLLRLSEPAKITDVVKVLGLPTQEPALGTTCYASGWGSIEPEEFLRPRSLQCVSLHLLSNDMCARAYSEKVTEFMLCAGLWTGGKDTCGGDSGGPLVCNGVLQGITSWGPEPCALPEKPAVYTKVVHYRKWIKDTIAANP
Experimental: (§1) Affinity of selected hK2 antibodies for soluble hK2 was measured by surface plasmon resonance (SPR). […] Antibodies were captured on a sensor chip coated with an anti-Fc antibody followed by injection of soluble hK2 at various concentrations and specified association and dissociation times. Post dissociation, the surface was regenerated with an appropriate solution to prepare for the next interaction. Kinetic information (on-rate and off-rate constants) were extracted by fitting sensorgrams to the 1:1 Langmuir model. Binding affinity (KD) are reported as the ratio of rate constants (koff/kₒₙ).
With B1 the Kd was 700 to 1000 pM. Work on B2 yielded a Kd of 40 pM. With B3 the Kd was 34300 pM. B4 showed a Kd of 80 pM. With B5 the Kd was 53 pM. B6 showed a Kd of 78 pM. Work on B7 yielded a Kd of 460 pM.

Each binder was assayed against T1, Kallikrein related peptidase 2 (hK2), … (assay: SPR, sentence summing up Table 14).
Experimental: as §1
B2 gave a Kd of under 500 pM. B4 gave a Kd of under 500 pM. B5 was tested, and the Kd was under 500 pM. Binder B6 has a Kd of under 500 pM. B7 showed a Kd of under 500 pM.

From patent US20250325718A1 (Janssen / Centocor, published 2025)
